Legend:
[1] = molecular target: T1, Histidine-tagged recombinant human FcγRI (CD64) (human, UniProt P12314 16-288, limits assumed); assay: SPR, His-FcγRI captured; mean;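 further: biacore T200 SPR at 25 °C, anti-His surface capturing FcγRI, Fc-variant antibodies injected at 100 µg/mL for 1 min, signal near injection end minus third buffer blank, three repeats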
T1 construct: bought
Experimental: (§1) Binding analysis was carried out by surface plasmon resonance at 25° C. using a Biacore® T200 instrument with Biacore® T200 control software. The sample compartment was held at 5° C. The running buffer (HBS-EP+) consisted of 0.01 M HEPES pH 7.4, containing 0.15 M NaCl, 3 mM EDTA, and 0.05% v/v Surfactant P20. Methods were run using the manufacturer's standard method wizards as described in the Biacore® T200 Instrument Handbook.
(§2) The cell was activated by treatment with EDC/NHS for 7 min. The antibody was diluted to 10 μg/mL in 10 mM sodium acetate pH 5.0 and injected for 7 min at 5 μL/min. The flow cell was deactivated by injection of 1M ethanolamine for 7 min. This process was repeated in the absence of anti-his antibody on a separate flow cell to generate a reference surface. […] Samples of purified antibodies comprising variant Fc regions (1 mg/mL in PBS) were diluted with running buffer to 100 μg/mL and were injected for 1 min at 30 μL/min and allowed to disassociate for 2 min. Between each cycle, the chip was regenerated by injection of 10 mM glycine pH 3.0 for 0.5 min at a flow rate of 30 μL/min and recharged with a fresh injection of FcγRI. At the beginning of each experiment, three blank cycles were run, with buffer alone being injected instead of test sample. The average SPR signal (relative to the reference cell) was measured in a window approximately 8 to 13 seconds before the injection of test sample (baseline) and approximately 3 to 8 seconds before the end of injection (response). The response of the third of the blank (buffer) samples was subtracted from the response of each test sample in order to allow for any dissociation of the bound FcγRI giving a corrected response for each test sample. The whole experiment was repeated three times with the test samples being analysed in different orders each time.

[2] = molecular target: T1, Histidine-tagged recombinant human …; assay: SPR, His-FcγRI captured; Expt 3;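 further: biacore T200 SPR at 25 °C, Fc-variant antibodies at 100 µg/mL flowed 1 min over anti-His-captured FcγRI, signal taken just before injection end minus a buffer blank cycle; antibody analyte injected at 100 µg/mL for 1 min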
Experimental: as §1, §2

[3] = molecular target: T1, Histidine-tagged recombinant human …; assay: SPR, His-FcγRI captured; Expt 2;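 further: biacore T200 SPR at 25 °C, Fc-variant antibodies at 100 µg/mL flowed 1 min over anti-His-captured receptor, signal read near injection end minus third buffer blank; antibody analyte injected at 100 µg/mL for 1 min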
[4] = molecular target: T1, Histidine-tagged recombinant human …; assay: SPR, His-FcγRI captured; Expt 1;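 further: SPR at 25 °C on anti-His antibody chip capturing FcγRI, Fc-variant antibodies injected at 100 µg/mL for 1 min, signal near end of injection minus buffer blank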

Binder	Corrected response (RU), Mean [1]	Corrected response (RU) [2]	Corrected response (RU) [3]	Corrected response (RU) [4]
anti-CD20 human IgG1 L234A/G236R (antibody, also called 1-9) heavy: not shown light: QIVLSQSPAILSASPGEKVTMTCRASSSVSYIHWFQQKPGSSPKPWIYATSNLASGVPVRFSGSGSGTSYSLTISRVEAEDAATYYCQQWTSNPPTFGGGTKLEIKRTVAAPSVFIFPPSDEQLKSGTASVVCLLNNFYPREAKVQWKVDNALQSGNSQESVTEQDSKDSTYSLSSTLTLSKADYEKHKVYACEVTHQGLSSPVTKSFNRGEC	70.4 RU	74.7 RU	49.3 RU	–
anti-CD20 human IgG1 L234K/L235Q/G236R (antibody, also called 2-22; 1-87) heavy: QVQLQQPGAELVKPGASVKMSCKASGYTFTSYNMHWVKQTPGRGLEWIGAIYPGNGDTSYNQKFKGKATLTADKSSSTAYMQLSSLTSEDSAVYYCARSTYYGGDWYFNVWGAGTTVTVSSASTKGPSVFPLAPSSKSTSGGTAALGCLVKDYFPEPVTVSWNSGALTSGVHTFPAVLQSSGLYSLSSVVTVPSSSLGTQTYICNVNHKPSNTKVDKKVEPKSCDKTHTCPPCPAPEKQRGPSVFLFPPKPKDTLMISRTPEVTCVVVDVSHEDPEVKFNWYVDGVEVHNAKTKPREEQYNSTYRVVSVLTVLHQDWLNGKEYKCKVSNKALPAPIEKTISKAKGQPREPQVYTLPPSRDELTKNQVSLTCLVKGFYPSDIAVEWESNGQPENNYKTTPPVLDSDGSFFLYSKLTVDKSRWQQGNVFSCSVMHEALHNHYTQKSLSLSPGK light: QIVLSQSPAILSASPGEKVTMTCRASSSVSYIHWFQQKPGSSPKPWIYATSNLASGVPVRFSGSGSGTSYSLTISRVEAEDAATYYCQQWTSNPPTFGGGTKLEIKRTVAAPSVFIFPPSDEQLKSGTASVVCLLNNFYPREAKVQWKVDNALQSGNSQESVTEQDSKDSTYSLSSTLTLSKADYEKHKVYACEVTHQGLSSPVTKSFNRGEC	–	5.8 RU	6.1 RU	–
anti-CD20 human IgG1 L234T/L235V/G236R (antibody, also called 2-64) heavy: QVQLQQPGAELVKPGASVKMSCKASGYTFTSYNMHWVKQTPGRGLEWIGAIYPGNGDTSYNQKFKGKATLTADKSSSTAYMQLSSLTSEDSAVYYCARSTYYGGDWYFNVWGAGTTVTVSSASTKGPSVFPLAPSSKSTSGGTAALGCLVKDYFPEPVTVSWNSGALTSGVHTFPAVLQSSGLYSLSSVVTVPSSSLGTQTYICNVNHKPSNTKVDKKVEPKSCDKTHTCPPCPAPETVRGPSVFLFPPKPKDTLMISRTPEVTCVVVDVSHEDPEVKFNWYVDGVEVHNAKTKPREEQYNSTYRVVSVLTVLHQDWLNGKEYKCKVSNKALPAPIEKTISKAKGQPREPQVYTLPPSRDELTKNQVSLTCLVKGFYPSDIAVEWESNGQPENNYKTTPPVLDSDGSFFLYSKLTVDKSRWQQGNVFSCSVMHEALHNHYTQKSLSLSPGK light: QIVLSQSPAILSASPGEKVTMTCRASSSVSYIHWFQQKPGSSPKPWIYATSNLASGVPVRFSGSGSGTSYSLTISRVEAEDAATYYCQQWTSNPPTFGGGTKLEIKRTVAAPSVFIFPPSDEQLKSGTASVVCLLNNFYPREAKVQWKVDNALQSGNSQESVTEQDSKDSTYSLSSTLTLSKADYEKHKVYACEVTHQGLSSPVTKSFNRGEC	3.9 RU	5.4 RU	3.6 RU	–
anti-CD20 human IgG1 L234D/L235S/G236R (antibody, also called 2-10; 1-29) heavy: QVQLQQPGAELVKPGASVKMSCKASGYTFTSYNMHWVKQTPGRGLEWIGAIYPGNGDTSYNQKFKGKATLTADKSSSTAYMQLSSLTSEDSAVYYCARSTYYGGDWYFNVWGAGTTVTVSSASTKGPSVFPLAPSSKSTSGGTAALGCLVKDYFPEPVTVSWNSGALTSGVHTFPAVLQSSGLYSLSSVVTVPSSSLGTQTYICNVNHKPSNTKVDKKVEPKSCDKTHTCPPCPAPEDSRGPSVFLFPPKPKDTLMISRTPEVTCVVVDVSHEDPEVKFNWYVDGVEVHNAKTKPREEQYNSTYRVVSVLTVLHQDWLNGKEYKCKVSNKALPAPIEKTISKAKGQPREPQVYTLPPSRDELTKNQVSLTCLVKGFYPSDIAVEWESNGQPENNYKTTPPVLDSDGSFFLYSKLTVDKSRWQQGNVFSCSVMHEALHNHYTQKSLSLSPGK light: QIVLSQSPAILSASPGEKVTMTCRASSSVSYIHWFQQKPGSSPKPWIYATSNLASGVPVRFSGSGSGTSYSLTISRVEAEDAATYYCQQWTSNPPTFGGGTKLEIKRTVAAPSVFIFPPSDEQLKSGTASVVCLLNNFYPREAKVQWKVDNALQSGNSQESVTEQDSKDSTYSLSSTLTLSKADYEKHKVYACEVTHQGLSSPVTKSFNRGEC	3.4 RU	3.6 RU	2.7 RU	–
anti-CD20 human IgG1 L235G/G236R (antibody, also called 2-83) heavy: not shown light: QIVLSQSPAILSASPGEKVTMTCRASSSVSYIHWFQQKPGSSPKPWIYATSNLASGVPVRFSGSGSGTSYSLTISRVEAEDAATYYCQQWTSNPPTFGGGTKLEIKRTVAAPSVFIFPPSDEQLKSGTASVVCLLNNFYPREAKVQWKVDNALQSGNSQESVTEQDSKDSTYSLSSTLTLSKADYEKHKVYACEVTHQGLSSPVTKSFNRGEC	–	–	125 RU	–
anti-CD20 human IgG1 L234S/L235V/G236R (antibody, also called 2-53) heavy: QVQLQQPGAELVKPGASVKMSCKASGYTFTSYNMHWVKQTPGRGLEWIGAIYPGNGDTSYNQKFKGKATLTADKSSSTAYMQLSSLTSEDSAVYYCARSTYYGGDWYFNVWGAGTTVTVSSASTKGPSVFPLAPSSKSTSGGTAALGCLVKDYFPEPVTVSWNSGALTSGVHTFPAVLQSSGLYSLSSVVTVPSSSLGTQTYICNVNHKPSNTKVDKKVEPKSCDKTHTCPPCPAPESVRGPSVFLFPPKPKDTLMISRTPEVTCVVVDVSHEDPEVKFNWYVDGVEVHNAKTKPREEQYNSTYRVVSVLTVLHQDWLNGKEYKCKVSNKALPAPIEKTISKAKGQPREPQVYTLPPSRDELTKNQVSLTCLVKGFYPSDIAVEWESNGQPENNYKTTPPVLDSDGSFFLYSKLTVDKSRWQQGNVFSCSVMHEALHNHYTQKSLSLSPGK light: QIVLSQSPAILSASPGEKVTMTCRASSSVSYIHWFQQKPGSSPKPWIYATSNLASGVPVRFSGSGSGTSYSLTISRVEAEDAATYYCQQWTSNPPTFGGGTKLEIKRTVAAPSVFIFPPSDEQLKSGTASVVCLLNNFYPREAKVQWKVDNALQSGNSQESVTEQDSKDSTYSLSSTLTLSKADYEKHKVYACEVTHQGLSSPVTKSFNRGEC	2.4 RU	4.3 RU	–	0.7 RU
anti-CD20 human IgG1 L234A/L235A/G236R (antibody, also called 2-2; 1-2) heavy: not shown light: QIVLSQSPAILSASPGEKVTMTCRASSSVSYIHWFQQKPGSSPKPWIYATSNLASGVPVRFSGSGSGTSYSLTISRVEAEDAATYYCQQWTSNPPTFGGGTKLEIKRTVAAPSVFIFPPSDEQLKSGTASVVCLLNNFYPREAKVQWKVDNALQSGNSQESVTEQDSKDSTYSLSSTLTLSKADYEKHKVYACEVTHQGLSSPVTKSFNRGEC	4.4 RU	5.2 RU	–	6.3 RU
anti-CD20 human IgG1 L234H/L235S/G236R (antibody, also called 2-21; 1-74) heavy: QVQLQQPGAELVKPGASVKMSCKASGYTFTSYNMHWVKQTPGRGLEWIGAIYPGNGDTSYNQKFKGKATLTADKSSSTAYMQLSSLTSEDSAVYYCARSTYYGGDWYFNVWGAGTTVTVSSASTKGPSVFPLAPSSKSTSGGTAALGCLVKDYFPEPVTVSWNSGALTSGVHTFPAVLQSSGLYSLSSVVTVPSSSLGTQTYICNVNHKPSNTKVDKKVEPKSCDKTHTCPPCPAPEHSRGPSVFLFPPKPKDTLMISRTPEVTCVVVDVSHEDPEVKFNWYVDGVEVHNAKTKPREEQYNSTYRVVSVLTVLHQDWLNGKEYKCKVSNKALPAPIEKTISKAKGQPREPQVYTLPPSRDELTKNQVSLTCLVKGFYPSDIAVEWESNGQPENNYKTTPPVLDSDGSFFLYSKLTVDKSRWQQGNVFSCSVMHEALHNHYTQKSLSLSPGK light: QIVLSQSPAILSASPGEKVTMTCRASSSVSYIHWFQQKPGSSPKPWIYATSNLASGVPVRFSGSGSGTSYSLTISRVEAEDAATYYCQQWTSNPPTFGGGTKLEIKRTVAAPSVFIFPPSDEQLKSGTASVVCLLNNFYPREAKVQWKVDNALQSGNSQESVTEQDSKDSTYSLSSTLTLSKADYEKHKVYACEVTHQGLSSPVTKSFNRGEC	–	5.9 RU	–	0.7 RU
anti-CD20 human IgG1 L234R/L235Q/G236R (antibody, also called 2-42) heavy: QVQLQQPGAELVKPGASVKMSCKASGYTFTSYNMHWVKQTPGRGLEWIGAIYPGNGDTSYNQKFKGKATLTADKSSSTAYMQLSSLTSEDSAVYYCARSTYYGGDWYFNVWGAGTTVTVSSASTKGPSVFPLAPSSKSTSGGTAALGCLVKDYFPEPVTVSWNSGALTSGVHTFPAVLQSSGLYSLSSVVTVPSSSLGTQTYICNVNHKPSNTKVDKKVEPKSCDKTHTCPPCPAPERQRGPSVFLFPPKPKDTLMISRTPEVTCVVVDVSHEDPEVKFNWYVDGVEVHNAKTKPREEQYNSTYRVVSVLTVLHQDWLNGKEYKCKVSNKALPAPIEKTISKAKGQPREPQVYTLPPSRDELTKNQVSLTCLVKGFYPSDIAVEWESNGQPENNYKTTPPVLDSDGSFFLYSKLTVDKSRWQQGNVFSCSVMHEALHNHYTQKSLSLSPGK light: QIVLSQSPAILSASPGEKVTMTCRASSSVSYIHWFQQKPGSSPKPWIYATSNLASGVPVRFSGSGSGTSYSLTISRVEAEDAATYYCQQWTSNPPTFGGGTKLEIKRTVAAPSVFIFPPSDEQLKSGTASVVCLLNNFYPREAKVQWKVDNALQSGNSQESVTEQDSKDSTYSLSSTLTLSKADYEKHKVYACEVTHQGLSSPVTKSFNRGEC	–	7.3 RU	–	-1 RU
anti-CD20 human IgG1 L234R/G236R (antibody, also called 2-41) heavy: not shown light: QIVLSQSPAILSASPGEKVTMTCRASSSVSYIHWFQQKPGSSPKPWIYATSNLASGVPVRFSGSGSGTSYSLTISRVEAEDAATYYCQQWTSNPPTFGGGTKLEIKRTVAAPSVFIFPPSDEQLKSGTASVVCLLNNFYPREAKVQWKVDNALQSGNSQESVTEQDSKDSTYSLSSTLTLSKADYEKHKVYACEVTHQGLSSPVTKSFNRGEC	5.2 RU	10.7 RU	3.9 RU	–
anti-CD20 human IgG1 L234D/G236R (antibody, also called 2-8; 1-24) heavy: not shown light: QIVLSQSPAILSASPGEKVTMTCRASSSVSYIHWFQQKPGSSPKPWIYATSNLASGVPVRFSGSGSGTSYSLTISRVEAEDAATYYCQQWTSNPPTFGGGTKLEIKRTVAAPSVFIFPPSDEQLKSGTASVVCLLNNFYPREAKVQWKVDNALQSGNSQESVTEQDSKDSTYSLSSTLTLSKADYEKHKVYACEVTHQGLSSPVTKSFNRGEC	–	–	77.7 RU	135 RU
